Substitutions are numbered along the chain they refer to. Numbers in names are those of the source.

Sequences and labels used below:
B1: PfA-M17(Δ388–389) (enzyme, Plasmodium falciparum, UniProt Q8IL11 85-605, looked up)
chain: ASEVPQVVSLDPTSIPIEYNTPIHDIKVQVYDIKGGCNVEEGLTIFLVNNPGKENGPVKISSKVNDKNVSEFLKDENMEKFNVKLGTSKHFYMFNDNKNSVAVGYVGCGSVADLSEADMKRVVLSLVTMLHDNKLSKLTVVFEINVDKNLFRFFLETLFYEYMTDERFKSTDKNVNMEYIKHLGVYINNADTYKEEVEKARVYYFGTYYASQLIAAPSNYCNPVSLSNAAVELAQKLNLEYKILGVKELEELKMGAYLSVGKGSMYPNKFIHLTYKSKGDVKKKIALVGKGITFDSGGYNLKAGSMIDLMKFDMSGCAAVLGCAYCVGTLKPENVEIHFLSAVCENMVSKNSYRPGDIITASNGKTIEVGNTDAEGRLTLADALVYAEKLGVDYIVDIATLTGAMLYSLGTSYAGVFGNNEELINKILNSSKTSNEPVWWLPIINEYRATLNSKYADINNISSSVKASSIVASLFLKEFVQNTAWAHIDIAGVSWNFKARKPKGFGVRLLTEFVLNDAL
B2: PfA-M17(Δ388–390) (enzyme, Plasmodium falciparum, UniProt Q8IL11 85-605, looked up)
chain: ASEVPQVVSLDPTSIPIEYNTPIHDIKVQVYDIKGGCNVEEGLTIFLVNNPGKENGPVKISSKVNDKNVSEFLKDENMEKFNVKLGTSKHFYMFNDNKNSVAVGYVGCGSVADLSEADMKRVVLSLVTMLHDNKLSKLTVVFEINVDKNLFRFFLETLFYEYMTDERFKSTDKNVNMEYIKHLGVYINNADTYKEEVEKARVYYFGTYYASQLIAAPSNYCNPVSLSNAAVELAQKLNLEYKILGVKELEELKMGAYLSVGKGSMYPNKFIHLTYKSKGDVKKKIALVGKGITFDSGGYNLKASMIDLMKFDMSGCAAVLGCAYCVGTLKPENVEIHFLSAVCENMVSKNSYRPGDIITASNGKTIEVGNTDAEGRLTLADALVYAEKLGVDYIVDIATLTGAMLYSLGTSYAGVFGNNEELINKILNSSKTSNEPVWWLPIINEYRATLNSKYADINNISSSVKASSIVASLFLKEFVQNTAWAHIDIAGVSWNFKARKPKGFGVRLLTEFVLNDAL
B3: Plasmodium falciparum M17 aminopeptidase (PfA-M17), wild type, truncated (amino acids 85-605) (enzyme, UniProt Q8IL11 85-605, looked up)
chain: ASEVPQVVSLDPTSIPIEYNTPIHDIKVQVYDIKGGCNVEEGLTIFLVNNPGKENGPVKISSKVNDKNVSEFLKDENMEKFNVKLGTSKHFYMFNDNKNSVAVGYVGCGSVADLSEADMKRVVLSLVTMLHDNKLSKLTVVFEINVDKNLFRFFLETLFYEYMTDERFKSTDKNVNMEYIKHLGVYINNADTYKEEVEKARVYYFGTYYASQLIAAPSNYCNPVSLSNAAVELAQKLNLEYKILGVKELEELKMGAYLSVGKGSMYPNKFIHLTYKSKGDVKKKIALVGKGITFDSGGYNLKAAPGSMIDLMKFDMSGCAAVLGCAYCVGTLKPENVEIHFLSAVCENMVSKNSYRPGDIITASNGKTIEVGNTDAEGRLTLADALVYAEKLGVDYIVDIATLTGAMLYSLGTSYAGVFGNNEELINKILNSSKTSNEPVWWLPIINEYRATLNSKYADINNISSSVKASSIVASLFLKEFVQNTAWAHIDIAGVSWNFKARKPKGFGVRLLTEFVLNDAL
B4: PfA-M17(A387P) (enzyme, Plasmodium falciparum, UniProt Q8IL11 85-605, looked up)
chain: B3 chain with A303P

The data set deals with the molecule itself. Briefly: SEC. On the technique in general: SEC sorts molecules by how far they enter the pores of the column.
In the case of B1, the stoichiometry N (in general, the number of molecules, sites or subunits per partner or assembly) stood at 6.

On to B2, for which the “stoichiometry N” value is 6.

B3: the “stoichiometry N” value worked out at 6.

Regarding B4, the “stoichiometry N” value came out at 6.

Source of the values: paper doi:10.1101/244665 (bioRxiv, 2019).
